In patent US20210261636A1, “NEOANTIGENS EXPRESSED IN MULTIPLE MYELOMA AND THEIR USES” (Janssen Biotech, Inc., priority 2020, published 2021):

Assays:
CD8+ T cells = assay: Exogenous autologous healthy donor restimulation assay, TNFα and IFNγ production by CD8+ T cells; format: cell-based, human; parameters: Frequency (TNFα+ IFNγ+ CD8 T cells): unit not given here; settings: for Fold change (CD8+) vs. DMSO: maximum CD8+ T-cell response (TNFα and IFNγ); for Fold change (CD8+) vs. DMSO / Frequency (TNFα+ IFNγ+ CD8 T cells): donor independent, peptide pool 10 μg/mL, healthy donors; for Frequency (TNFα+ IFNγ+ CD8 T cells): maximum CD8+ T-cell response; for Immunogenic (yes/no): positive if CD8+ and/or CD4+ double positive TNFα/IFNγ frequency >=3-fold over DMSO and at least 0.01%
Method in brief: (§1)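 CD1c+ DCs from healthy donor PBMCs pulsed 2 h with 15-mer overlapping neoantigen peptide pools (10 μg/mL), irradiated 50 Gy, then co-cultured 12 days with autologous CD3+ T cells plus IL-15/IL-2. Restimulated day 11 with same pools, overnight with protein inhibitor; intracellular TNFα/IFNγ by flow. Positive: ≥3-fold over DMSO and ≥0.01% double-positive.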

CD4+ T cells = assay: Exogenous autologous healthy donor restimulation assay, TNFα and IFNγ production by CD4+ T cells; format: cell-based, human; parameters: Frequency (TNFα+ IFNγ+ CD4 T cells): unit not given here; settings: donor independent, peptide pool 10 μg/mL, healthy donors; for Fold change (CD4+) vs. DMSO: maximum CD4+ T-cell response (TNFα and IFNγ); for Frequency (TNFα+ IFNγ+ CD4 T cells): maximum CD4+ T-cell response
Method in brief: as §1

B1: YESPIFSRDRVNPGALSGSLGQARAACWRTLGSLKPGGEFRAAEQRRAGWVPGAPGFTCSLISSRFPRERFCLRHRSSWRGARRVQCVCPGQTEGLWL (peptide)
chain: YESPIFSRDRVNPGALSGSLGQARAACWRTLGSLKPGGEFRAAEQRRAGWVPGAPGFTCSLISSRFPRERFCLRHRSSWRGARRVQCVCPGQTEGLWL
notes: alternative splicing, WNT10A
Q: For B1, which “Fold change (CD8+) vs. DMSO” value (CD8+ T cells) is on record?
A: The value was 38.74.

Q: And the “Frequency (TNFα+ IFNγ+ CD8 T cells)” value (CD8+ T cells)?
A: The value was 0.095.

Q: What about the “Immunogenic (yes/no)” value (CD8+ T cells) of the same molecule?
A: Its value is “Yes”.

Q: And the “Fold change (CD4+) vs. DMSO” value (CD4+ T cells)?
A: The value was 12.303.

Q: What about the “Frequency (TNFα+ IFNγ+ CD4 T cells)” value (CD4+ T cells) of the same molecule?
A: Its value is 0.071.

B2: EIEGSCHGGMITMDIKMGSYSCDYLKHSETLSAMVVSCGISFLFLFPRKKIAKLIFKEQVP (peptide)
chain: EIEGSCHGGMITMDIKMGSYSCDYLKHSETLSAMVVSCGISFLFLFPRKKIAKLIFKEQVP
notes: alternative splicing, EPHA6
Q: For B2, which “Fold change (CD8+) vs. DMSO” value (CD8+ T cells) is on record?
A: The value was 100.

Q: What about the “Frequency (TNFα+ IFNγ+ CD8 T cells)” value (CD8+ T cells) of the same molecule?
A: The value was 17.

Q: What about the “Immunogenic (yes/no)” value (CD8+ T cells) of the same molecule?
A: Its value is “Yes”.

Q: What about the “Fold change (CD4+) vs. DMSO” value (CD4+ T cells) of the same molecule?
A: The value was 111.44.

Q: What about the “Frequency (TNFα+ IFNγ+ CD4 T cells)” value (CD4+ T cells) of the same molecule?
A: The value was 0.57.

B3: VYPVYQPVVSQAGLGELWQWASGKLRGYCWRRGQWHAYSIQCDPHPVFGEGACDCSETEAHGGCQSPRLESFPGQPPGFRGQRF (peptide)
chain: VYPVYQPVVSQAGLGELWQWASGKLRGYCWRRGQWHAYSIQCDPHPVFGEGACDCSETEAHGGCQSPRLESFPGQPPGFRGQRF
notes: gene fusion NDUFB8-> SEC31B
Q: Which “Fold change (CD8+) vs. DMSO” value (CD8+ T cells) does the source give for B3 here?
A: Its value is 42.81.

Q: What about the “Frequency (TNFα+ IFNγ+ CD8 T cells)” value (CD8+ T cells) of the same molecule?
A: The value was 0.064.

Q: And the “Immunogenic (yes/no)” value (CD8+ T cells)?
A: Its value is “Yes”.

Q: And the “Fold change (CD4+) vs. DMSO” value (CD4+ T cells)?
A: The value was 1.94.

Q: And the “Frequency (TNFα+ IFNγ+ CD4 T cells)” value (CD4+ T cells)?
A: Its value is 0.011.

B4: GWKICREGIGPVMLTMTSGEWSFSFLEAICGVSREPVPRRRHCIWDTRGGVGLCEASCWRPTSEVG (peptide)
chain: GWKICREGIGPVMLTMTSGEWSFSFLEAICGVSREPVPRRRHCIWDTRGGVGLCEASCWRPTSEVG
notes: alternative splicing, STARD5
Q: With B4 as the molecule, how does the “Fold change (CD8+) vs. DMSO” value (CD8+ T cells) read?
A: Its value is 874.02.

Q: What about the “Frequency (TNFα+ IFNγ+ CD8 T cells)” value (CD8+ T cells) of the same molecule?
A: The value was 7.77.

Q: And the “Immunogenic (yes/no)” value (CD8+ T cells)?
A: Its value is “Yes”.

Q: What about the “Fold change (CD4+) vs. DMSO” value (CD4+ T cells) of the same molecule?
A: Its value is 44.35.

Q: What about the “Frequency (TNFα+ IFNγ+ CD4 T cells)” value (CD4+ T cells) of the same molecule?
A: The value was 0.081.

B5: RQREVVDLVKKDLVMRAVSLGTQRGDQNGRPSWSGHAIWARIMECAYKGQQECLVETGALGPMAFRVHLGSQVGMDSKEKRGNV (peptide)
chain: RQREVVDLVKKDLVMRAVSLGTQRGDQNGRPSWSGHAIWARIMECAYKGQQECLVETGALGPMAFRVHLGSQVGMDSKEKRGNV
notes: alternative splicing, CTHRC1
Q: For B5, which “Fold change (CD8+) vs. DMSO” value (CD8+ T cells) is on record?
A: The value was 288.14.

Q: What about the “Frequency (TNFα+ IFNγ+ CD8 T cells)” value (CD8+ T cells) of the same molecule?
A: Its value is 0.51.

Q: And the “Immunogenic (yes/no)” value (CD8+ T cells)?
A: Its value is “Yes”.

Q: And the “Fold change (CD4+) vs. DMSO” value (CD4+ T cells)?
A: The value was 223.78.

Q: What about the “Frequency (TNFα+ IFNγ+ CD4 T cells)” value (CD4+ T cells) of the same molecule?
A: Its value is 0.16.

B6: SLLIGALRITWKREAGRKSFFKCGLRVHMWKGLQFIEITRRNWMLIFQSCSLFGTSQYRSLTKKCQLCFRFKRVSSKGSDITDKREVTH (peptide)
chain: SLLIGALRITWKREAGRKSFFKCGLRVHMWKGLQFIEITRRNWMLIFQSCSLFGTSQYRSLTKKCQLCFRFKRVSSKGSDITDKREVTH
notes: alternative splicing, ARHGAP42
Q: What does the source list for B6?
A: Fold change (CD8+) vs. DMSO (CD8+ T cells): 1100; Frequency (TNFα+ IFNγ+ CD8 T cells) (CD8+ T cells): 0.29; Immunogenic (yes/no) (CD8+ T cells): Yes; Fold change (CD4+) vs. DMSO (CD4+ T cells): 15.34; Frequency (TNFα+ IFNγ+ CD4 T cells) (CD4+ T cells): 0.1

B7: MSATTGSQDNPEGKRDPSRKFQEQKALPKRPPLQKNLRNGVGQHYPATLTSRTRNSIKMRHSRTTRARRPPPSPVLPWAASNSQARPETSSLSEKSPEV (peptide)
chain: MSATTGSQDNPEGKRDPSRKFQEQKALPKRPPLQKNLRNGVGQHYPATLTSRTRNSIKMRHSRTTRARRPPPSPVLPWAASNSQARPETSSLSEKSPEV
notes: alternative splicing, CSAG1
Q: Which results are given for B7?
A: Fold change (CD8+) vs. DMSO (CD8+ T cells): 6327.68; Frequency (TNFα+ IFNγ+ CD8 T cells) (CD8+ T cells): 11.2; Immunogenic (yes/no) (CD8+ T cells): Yes; Fold change (CD4+) vs. DMSO (CD4+ T cells): 79.18; Frequency (TNFα+ IFNγ+ CD4 T cells) (CD4+ T cells): 0.12
